# Experiments:
# [1] = test system: FGFR4-dependent phosphorylation of FRS2; assay: Western blot of FGF19-induced FRS2/FGFR4 phosphorylation in HCC cells; assay type: cell-based, human; details: Huh7; antibodies 100 or 200 ug/mL, BLU9931 0.1 uM or 1 uM; FIG. 21
# Procedure: FIG. 21. Inhibition of FGF19-dependent FGFR4 and FRS2 phosphorylation in Huh7 cells treated with the anti-FGFR4 chimeric antibodies analyzed by Western Blot. Cells were treated with 100 or 200 ug/mL of each antibody, with 0.1 uM or 1 uM BLU9931, or with PBS prior of the addition of FGF19/heparin under the experimental conditions described in the Example 8.
# FIG. 31. […] (A) Graph of the absorbance values at 450 nm obtained from a FGFR4-Fc-dependent solid phase binding assay, as a function of the concentration of ab41948. Serial 1:3 dilutions (10 experimental points from 0.00005 ug/mL to 1 ug/mL) were tested in triplicate on the extracellular regions of FGFR4 fused with human Fc. The continuous line is the experimental one while the dashed line is that obtained by fitting experimental data to the “one site binding” equation. […] Inhibition curves were derived by 4P logistic fitting of the experimental data with the KaleidaGraph software, based on the residual absorbance at 450 nm (% of PBS control) at increasing antibody concentrations (1:3 serial dilutions from 0.001 to 10 ug/mL). […]
# BLU9931 was included as positive control Ih before cell lysis at concentrations of […]. Total protein lysates in SDS were prepared and analyzed by Western Blot using an anti-phospho-FRS2 antibody (Tyrl96, Cell Signalling), an anti-FRS2 antibody (LSBio) and an anti-GAPDH antibody (Sigma-Aldrich). […]
# [2] = test system: FGFR4 signalling pathway (CYP7A1, CTGF mRNA)
molecule,measurement,setting,value
"C=CC(=O)Nc1cccc(C)c1Nc1ncc2cc(-c3c(Cl)c(OC)cc(OC)c3Cl)ccc2n1 [BLU9931, reference compound]",inhibition of FGF19-induced FGFR4 and FRS2 phosphorylation,[1],could inhibit FGF19-induced FGFR4 and FRS2 phosphorylation
"FGF19: recombinant FGF19 (Peprotech), FGFR4 ligand",increase of CTGF expression,[2],about 2.5 fold
same,reduction of CYP7A1 expression,[2],about 5 fold

# From US11643467B2, “Monoclonal antibody anti-FGFR4” (EXIRIS S.R.L., priority 2017, dated 2023)
